Data taken from publication PMC2699623 (Structure (London, England : 1993), 2009).

Experiments:
[1] = molecular target: ALIXV, the middle domain (V-domain) of ALIX (monomeric form) (UniProt Q8WUM4); experiment: SEC-MALS
[2] = molecular target: ALIX_(Bro1-V), ALIX lacking the proline rich domain (monomeric form); experiment: SEC-MALS
[3] = molecular target: peptide derived from EIAV Gag p9 (equine infectious anemia virus (EIAV)); experiment: ITC
SEC-MALS = molecular target: the molecule itself; experiment: SEC-MALS

ALIXV, the middle domain (V-domain) of ALIX (monomeric form) (from UniProt Q8WUM4 360-702) (domain or fragment)
stoichiometry N [1]: 2

ALIX_(Bro1-V), ALIX lacking the proline rich domain (monomeric form) (domain or fragment)
stoichiometry N [2]: 2

dimeric ALIXV (from UniProt Q8WUM4 360-702) (complex)
Kd [3]: 8 µM

B1: ALIX_(Vmut2) (domain or fragment)
chain: PVSVQQSLAAYNQRKADLVNRSIAQMREATTLANGVLASLNLPAAIEDVSGDTVPQSILTKSRSVIEQGGIQTVDQLIKELPELLQRNREILDESLRLLDEEEATDNDLRAKFKERWQRTPSNELYKPLRAEGTNFRTVLDKAVQADGQVKECYQSHRDTIVLLCKPEPELNAAIPSANPAKTMQGSEVVNVLKSLLSNLDEVKKEREGLENDLKSVNFDMTSKFLTALAQDGVINEEALSVTELDRVYGGLTTKVQESLKKQEGLLKNIQVSHQEFSKMKQSYKKANLREEVLKNLATAYDNFVELVANLKEGTKFYNELTEILVRFQNKCSDIVFARKTER
stoichiometry N (SEC-MALS): 2
